These are literature values, as cited in US8168409B2, “Compositions and methods relating to anti-IGF-1 receptor antibodies” (Amgen Inc., priority 2004, dated 2012).

This data set addresses IGF-1R (Homo sapiens, UniProt P08069). The settings on record: biphasic binding; high affinity component.

Usually Kd stands for the concentration at which binding is half-saturated. Take “IGF-2: insulin-like growth factor 2, ligand of IGF-1R”: the Kd was around 0.2 nM.
